From US20260176319A1 (KALLYOPE, published 2026)
Each block holds one binder with its values, some of them ahead of it. Starred links: 1 amine or outer side, 2 acyl side, 3 side chain; linkers in the order of their positions; H or OH if unused. Non-standard residues stand in square brackets, D forms with d. No end group written: not given here. *: point of attachment. Trp(6-F) = N[C@@H](Cc1c[nH]c2cc(F)ccc12)C(=O)O; Trp(7-F) = N[C@@H](Cc1c[nH]c2c(F)cccc12)C(=O)O; Trp(7-Me) = Cc1cccc2c(C[C@H](N)C(=O)O)c[nH]c12; C20 diacid = O=C(O)CCCCCCCCCCCCCCCCCCC(=O)*; d(γGlu) = O=C(O)[C@@H](CCC(=O)[*:2])N[*:1]; C18 diacid = O=C(O)CCCCCCCCCCCCCCCCC(=O)*; γGlu = O=C(O)[C@H](CCC(=O)[*:2])N[*:1]; 2Nal = N[C@@H](Cc1ccc2ccccc2c1)C(=O)O; Cha = N[C@@H](CC1CCCCC1)C(=O)O; Nle = CCCC[C@H](N)C(=O)O; AEEA = NCCOCCOCC(=O)O; Sar = CNCC(=O)O

Molecular target: human GRP receptor (human, UniProt P30550 1-384)
Assay: cell-based or functional assay

Chain of human GRP receptor (P30550 whole entry): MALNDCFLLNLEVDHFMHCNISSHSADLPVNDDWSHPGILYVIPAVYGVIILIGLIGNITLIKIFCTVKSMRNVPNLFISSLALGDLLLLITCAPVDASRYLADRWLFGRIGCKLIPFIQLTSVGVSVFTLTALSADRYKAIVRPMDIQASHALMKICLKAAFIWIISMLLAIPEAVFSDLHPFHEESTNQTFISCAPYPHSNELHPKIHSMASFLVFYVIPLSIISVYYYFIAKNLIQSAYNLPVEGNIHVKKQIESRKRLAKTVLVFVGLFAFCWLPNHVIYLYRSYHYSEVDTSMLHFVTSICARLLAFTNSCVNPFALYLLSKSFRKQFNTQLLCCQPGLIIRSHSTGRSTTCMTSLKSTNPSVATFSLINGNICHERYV

B4: Peptide 122 (peptide)
peptide: {C20 diacid}-[γGlu][AEEA][AEEA][AEEA][AEEA]GRH[Trp(7-Me)]AV[dA]HL[Nle]-NH2
SMILES: CCCC[C@H](NC(=O)[C@H](CC(C)C)NC(=O)[C@H](Cc1c[nH]cn1)NC(=O)[C@@H](C)NC(=O)[C@@H](NC(=O)[C@H](C)NC(=O)[C@H](Cc1c[nH]c2c(C)cccc12)NC(=O)[C@H](Cc1c[nH]cn1)NC(=O)[C@H](CCCNC(=N)N)NC(=O)CNC(=O)COCCOCCNC(=O)COCCOCCNC(=O)COCCOCCNC(=O)COCCOCCNC(=O)CC[C@H](NC(=O)CCCCCCCCCCCCCCCCCCC(=O)O)C(=O)O)C(C)C)C(N)=O
hIP1 GRPR EC50: 3.88 nM

Binder: GNHWAVXHLX (Palmitoyl-Gly-Asn-His-Trp-Ala-Val-D-Ala-His-Leu-Nle-NH2) [Peptide 10]
hIP1 GRPR EC50: 3.8 nM

B5: Peptide 119 (peptide)
peptide: {C18 diacid}-[γGlu][AEEA][AEEA]GNHWAV[dA]HL[Cha]-NH2
SMILES: CC(C)C[C@H](NC(=O)[C@H](Cc1c[nH]cn1)NC(=O)[C@@H](C)NC(=O)[C@@H](NC(=O)[C@H](C)NC(=O)[C@H](Cc1c[nH]c2ccccc12)NC(=O)[C@H](Cc1c[nH]cn1)NC(=O)[C@H](CC(N)=O)NC(=O)CNC(=O)COCCOCCNC(=O)COCCOCCNC(=O)CC[C@H](NC(=O)CCCCCCCCCCCCCCCCC(=O)O)C(=O)O)C(C)C)C(=O)N[C@@H](CC1CCCCC1)C(N)=O
hIP1 GRPR EC50: 660 nM

B6: Peptide 123 (peptide)
peptide: {C20 diacid}-[γGlu][AEEA][AEEA]GNH[Trp(7-Me)]AV[dA]HL[Nle][Sar]-NH2
SMILES: CCCC[C@H](NC(=O)[C@H](CC(C)C)NC(=O)[C@H](Cc1c[nH]cn1)NC(=O)[C@@H](C)NC(=O)[C@@H](NC(=O)[C@H](C)NC(=O)[C@H](Cc1c[nH]c2c(C)cccc12)NC(=O)[C@H](Cc1c[nH]cn1)NC(=O)[C@H](CC(N)=O)NC(=O)CNC(=O)COCCOCCNC(=O)COCCOCCNC(=O)CC[C@H](NC(=O)CCCCCCCCCCCCCCCCCCC(=O)O)C(=O)O)C(C)C)C(=O)N(C)CC(N)=O
hIP1 GRPR EC50: 60.1 nM

B7: Peptide 124 (peptide)
peptide: {C18 diacid}-[γGlu][AEEA][AEEA]GAH[2Nal]AV[dA]HL[Nle][Sar]-NH2
SMILES: CCCC[C@H](NC(=O)[C@H](CC(C)C)NC(=O)[C@H](Cc1c[nH]cn1)NC(=O)[C@@H](C)NC(=O)[C@@H](NC(=O)[C@H](C)NC(=O)[C@H](Cc1ccc2ccccc2c1)NC(=O)[C@H](Cc1c[nH]cn1)NC(=O)[C@H](C)NC(=O)CNC(=O)COCCOCCNC(=O)COCCOCCNC(=O)CC[C@H](NC(=O)CCCCCCCCCCCCCCCCC(=O)O)C(=O)O)C(C)C)C(=O)N(C)CC(N)=O
hIP1 GRPR EC50: 2380 nM

B8: Peptide 9 (peptide)
peptide: {C18 diacid}-[d(γGlu)][AEEA][AEEA]GNHWAV[dA]HL[Nle]-NH2
SMILES: CCCC[C@H](NC(=O)[C@H](CC(C)C)NC(=O)[C@H](Cc1c[nH]cn1)NC(=O)[C@@H](C)NC(=O)[C@@H](NC(=O)[C@H](C)NC(=O)[C@H](Cc1c[nH]c2ccccc12)NC(=O)[C@H](Cc1c[nH]cn1)NC(=O)[C@H](CC(N)=O)NC(=O)CNC(=O)COCCOCCNC(=O)COCCOCCNC(=O)CC[C@@H](NC(=O)CCCCCCCCCCCCCCCCC(=O)O)C(=O)O)C(C)C)C(N)=O
hIP1 GRPR EC50: 9.4 nM

B12: Peptide 121 (peptide)
peptide: {C18 diacid}-[γGlu][AEEA][AEEA][AEEA][AEEA]GAH[Trp(7-F)]AV[dA]HL[Nle][Sar]-NH2
SMILES: CCCC[C@H](NC(=O)[C@H](CC(C)C)NC(=O)[C@H](Cc1c[nH]cn1)NC(=O)[C@@H](C)NC(=O)[C@@H](NC(=O)[C@H](C)NC(=O)[C@H](Cc1c[nH]c2c(F)cccc12)NC(=O)[C@H](Cc1c[nH]cn1)NC(=O)[C@H](C)NC(=O)CNC(=O)COCCOCCNC(=O)COCCOCCNC(=O)COCCOCCNC(=O)COCCOCCNC(=O)CC[C@H](NC(=O)CCCCCCCCCCCCCCCCC(=O)O)C(=O)O)C(C)C)C(=O)N(C)CC(N)=O
hIP1 GRPR EC50: 356 nM

B13: Peptide 120 (peptide)
peptide: {C18 diacid}-[γGlu][AEEA][AEEA]GAHWAV[dA]HL[Cha]-NH2
SMILES: CC(C)C[C@H](NC(=O)[C@H](Cc1c[nH]cn1)NC(=O)[C@@H](C)NC(=O)[C@@H](NC(=O)[C@H](C)NC(=O)[C@H](Cc1c[nH]c2ccccc12)NC(=O)[C@H](Cc1c[nH]cn1)NC(=O)[C@H](C)NC(=O)CNC(=O)COCCOCCNC(=O)COCCOCCNC(=O)CC[C@H](NC(=O)CCCCCCCCCCCCCCCCC(=O)O)C(=O)O)C(C)C)C(=O)N[C@@H](CC1CCCCC1)C(N)=O
hIP1 GRPR EC50: 443 nM

Binder: GNHWAVGHLM-NH2 [GRP-10 (human GRP18-27)]
hIP1 GRPR EC50: 15 nM

More lines, now with the values ahead:

hIP1 GRPR EC50: 92.5 nM
B1: Peptide 126 (peptide)
peptide: {C18 diacid}-[γGlu][AEEA][AEEA]GAH[2Nal]AV[dA]HL[Nle]-NH2
SMILES: CCCC[C@H](NC(=O)[C@H](CC(C)C)NC(=O)[C@H](Cc1c[nH]cn1)NC(=O)[C@@H](C)NC(=O)[C@@H](NC(=O)[C@H](C)NC(=O)[C@H](Cc1ccc2ccccc2c1)NC(=O)[C@H](Cc1c[nH]cn1)NC(=O)[C@H](C)NC(=O)CNC(=O)COCCOCCNC(=O)COCCOCCNC(=O)CC[C@H](NC(=O)CCCCCCCCCCCCCCCCC(=O)O)C(=O)O)C(C)C)C(N)=O

hIP1 GRPR EC50: 334 nM
B2: Peptide 129 (peptide)
peptide: {C18 diacid}-[γGlu][AEEA][AEEA]GRH[Trp(7-Me)]AV[dA]HL[Nle][Sar]-NH2
SMILES: CCCC[C@H](NC(=O)[C@H](CC(C)C)NC(=O)[C@H](Cc1c[nH]cn1)NC(=O)[C@@H](C)NC(=O)[C@@H](NC(=O)[C@H](C)NC(=O)[C@H](Cc1c[nH]c2c(C)cccc12)NC(=O)[C@H](Cc1c[nH]cn1)NC(=O)[C@H](CCCNC(=N)N)NC(=O)CNC(=O)COCCOCCNC(=O)COCCOCCNC(=O)CC[C@H](NC(=O)CCCCCCCCCCCCCCCCC(=O)O)C(=O)O)C(C)C)C(=O)N(C)CC(N)=O

hIP1 GRPR EC50: 4.18 nM
B3: Peptide 132 (peptide)
peptide: {C20 diacid}-[γGlu][AEEA][AEEA][AEEA][AEEA]GRHWAV[dA]HL[Nle]-NH2
SMILES: CCCC[C@H](NC(=O)[C@H](CC(C)C)NC(=O)[C@H](Cc1c[nH]cn1)NC(=O)[C@@H](C)NC(=O)[C@@H](NC(=O)[C@H](C)NC(=O)[C@H](Cc1c[nH]c2ccccc12)NC(=O)[C@H](Cc1c[nH]cn1)NC(=O)[C@H](CCCNC(=N)N)NC(=O)CNC(=O)COCCOCCNC(=O)COCCOCCNC(=O)COCCOCCNC(=O)COCCOCCNC(=O)CC[C@H](NC(=O)CCCCCCCCCCCCCCCCCCC(=O)O)C(=O)O)C(C)C)C(N)=O

hIP1 GRPR EC50: 600 nM
B9: Peptide 133 (peptide)
peptide: {C18 diacid}-[γGlu][AEEA][AEEA][AEEA][AEEA]GNH[Trp(6-F)]AV[dA]HL[Nle][Sar]-NH2
SMILES: CCCC[C@H](NC(=O)[C@H](CC(C)C)NC(=O)[C@H](Cc1c[nH]cn1)NC(=O)[C@@H](C)NC(=O)[C@@H](NC(=O)[C@H](C)NC(=O)[C@H](Cc1c[nH]c2cc(F)ccc12)NC(=O)[C@H](Cc1c[nH]cn1)NC(=O)[C@H](CC(N)=O)NC(=O)CNC(=O)COCCOCCNC(=O)COCCOCCNC(=O)COCCOCCNC(=O)COCCOCCNC(=O)CC[C@H](NC(=O)CCCCCCCCCCCCCCCCC(=O)O)C(=O)O)C(C)C)C(=O)N(C)CC(N)=O

hIP1 GRPR EC50: 54.2 nM
B10: Peptide 131 (peptide)
peptide: {C20 diacid}-[γGlu][AEEA][AEEA]GNHWAV[dA]HL[Nle][Sar]-NH2
SMILES: CCCC[C@H](NC(=O)[C@H](CC(C)C)NC(=O)[C@H](Cc1c[nH]cn1)NC(=O)[C@@H](C)NC(=O)[C@@H](NC(=O)[C@H](C)NC(=O)[C@H](Cc1c[nH]c2ccccc12)NC(=O)[C@H](Cc1c[nH]cn1)NC(=O)[C@H](CC(N)=O)NC(=O)CNC(=O)COCCOCCNC(=O)COCCOCCNC(=O)CC[C@H](NC(=O)CCCCCCCCCCCCCCCCCCC(=O)O)C(=O)O)C(C)C)C(=O)N(C)CC(N)=O

hIP1 GRPR EC50: 1060 nM
B11: Peptide 128 (peptide)
peptide: {C18 diacid}-[γGlu][AEEA][AEEA]GAHW[dA]V[dA]HL[Nle][Sar]-NH2
SMILES: CCCC[C@H](NC(=O)[C@H](CC(C)C)NC(=O)[C@H](Cc1c[nH]cn1)NC(=O)[C@@H](C)NC(=O)[C@@H](NC(=O)[C@@H](C)NC(=O)[C@H](Cc1c[nH]c2ccccc12)NC(=O)[C@H](Cc1c[nH]cn1)NC(=O)[C@H](C)NC(=O)CNC(=O)COCCOCCNC(=O)COCCOCCNC(=O)CC[C@H](NC(=O)CCCCCCCCCCCCCCCCC(=O)O)C(=O)O)C(C)C)C(=O)N(C)CC(N)=O

hIP1 GRPR EC50: > 10000 nM
B14: Peptide 125 (peptide)
peptide: {C20 diacid}-[γGlu][AEEA][AEEA]GNH[Trp(7-Me)][dA]V[dA]HL[Nle][Sar]-NH2
SMILES: CCCC[C@H](NC(=O)[C@H](CC(C)C)NC(=O)[C@H](Cc1c[nH]cn1)NC(=O)[C@@H](C)NC(=O)[C@@H](NC(=O)[C@@H](C)NC(=O)[C@H](Cc1c[nH]c2c(C)cccc12)NC(=O)[C@H](Cc1c[nH]cn1)NC(=O)[C@H](CC(N)=O)NC(=O)CNC(=O)COCCOCCNC(=O)COCCOCCNC(=O)CC[C@H](NC(=O)CCCCCCCCCCCCCCCCCCC(=O)O)C(=O)O)C(C)C)C(=O)N(C)CC(N)=O

hIP1 GRPR EC50: > 10000 nM
B15: Peptide 130 (peptide)
peptide: {C18 diacid}-[γGlu][AEEA][AEEA]GNHRAV[dA]HL[Nle][Sar]-NH2
SMILES: CCCC[C@H](NC(=O)[C@H](CC(C)C)NC(=O)[C@H](Cc1c[nH]cn1)NC(=O)[C@@H](C)NC(=O)[C@@H](NC(=O)[C@H](C)NC(=O)[C@H](CCCNC(=N)N)NC(=O)[C@H](Cc1c[nH]cn1)NC(=O)[C@H](CC(N)=O)NC(=O)CNC(=O)COCCOCCNC(=O)COCCOCCNC(=O)CC[C@H](NC(=O)CCCCCCCCCCCCCCCCC(=O)O)C(=O)O)C(C)C)C(=O)N(C)CC(N)=O
